Measured values taken from article PMC10372118.

Biological target: truncated human ACE2 (residues 19-613 with a C-terminal AviTag and 6xHis-tag), biotinylated (human) (UniProt Q9BYF1)
Assay: BLI

SARS-CoV-2 ancestral receptor-binding domain (RBD), recombinant (from UniProt P0DTC2) (domain or fragment)
t1/2: 1.39 min
